Laboratory results published in the RNAGym collection of RNA variant scans (doi:10.7554/elife.80360).

B1: HDV Ribozyme (parent)
chain: GGCCGGCAUGGUCCCAGCCUCCUCGCUGGCGCCGGCUGGGCAACAUUCCGAGGGGACCGUCCCCUCGGUAAUGGCGAAUGGGACCCA

Variants of: B1
Assay: self-cleavage, relative activity (ratio to wild type); higher = more cleavage; co-transcriptional

| Variant | self-cleavage |
| --- | --- |
| C13A G35A | 0.0339 |
| C13G A45G | 0.138 |
| C13A C41A | 0.219 |
| C13A C41U | 0.149 |
| C13A C75A | 0.0573 |
| C13A C75G | 0.145 |
| C13A C44A | 0.119 |
| C13A C44G | 0 |
| C13A C44U | 0.0652 |
| C13G G17U | 0.0426 |
| C13U C62U | 0.589 |
| C13U C62A | 0.489 |
| C13A U79C | 0.0692 |
| C13G G54U | 0.0282 |
| C13G G54A | 0.0604 |
| C13G G54C | 0.115 |
| C13G C84A | 0 |
| C13G C84G | 0.0978 |
| C14A C18G | 0 |
| C14A C18U | 0 |
| C13U G39A | 0.332 |
| C13U G39C | 0.0369 |
| C13A U23G | 0.0923 |
| C13G C62G | 0.158 |

| Variant | self-cleavage |
| --- | --- |
| C14A A51U | 0.779 |
| C14A A51G | 0.755 |
| C13U A42G | 0.0755 |
| C13U A71G | 0.429 |
| C13U A71U | 0.494 |
| C13G U65G | 0.115 |
| C13U U27C | 0.615 |
| C13U U27G | 1.06 |
| C13U A51G | 0.89 |
| C13U A51C | 0.997 |
| C13U G67A | 0.572 |
| C13U G67C | 0.374 |
| C13U | 0.683 |
| C13G | 0.078 |
| C13A G50U | 0.282 |
| C13A G50A | 0.295 |
| C13U G34U | 0.0268 |
| C13U G34C | 0.0898 |
| C13A U72C | 0.0573 |
| C13A U72G | 0.0639 |
| C13A U72A | 0 |
| C13G G53A | 0.163 |
| C13G G53U | 0.102 |
| C13G G74U | 0.0386 |

| Variant | self-cleavage |
| --- | --- |
| C13G G74A | 0.0405 |
| C13G C57U | 0.0426 |
| C13G C57G | 0.107 |
| C13G C57A | 0.0554 |
| C13A G67C | 0.259 |
| C13A G67U | 0.17 |
| C13A G67A | 0.23 |
| C13U U20C | 0.0978 |
| C13U U20G | 0.135 |
| C13G U20G | 0 |
| C13G U20C | 0.158 |
| C13G U20A | 0 |
| C13G U72C | 0.0723 |
| C13U G38A | 0.138 |
| C13U G38U | 0.149 |
| C13U C19G | 0.138 |
| C13U G40A | 0.365 |
| C13A U46A | 0.0346 |
| C13A U46C | 0.203 |
| C13G U46A | 0.0615 |
| C13A U69C | 0.111 |
| C13A U69A | 0.277 |
| C13G C58U | 0.0898 |
| C13G C58G | 0.119 |

| Variant | self-cleavage |
| --- | --- |
| C13A G73A | 0.0863 |
| C13A G73U | 0.0615 |
| C13A G73C | 0.0767 |
| C13G C48G | 0.0615 |
| C13G C48A | 0.26 |
| C13U G80C | 0.0332 |
| C13G G81C | 0.229 |
| C13G G81A | 0.0426 |
| C13G G81U | 0.0475 |
| C13U C86A | 0.96 |
| C13A G40A | 0.233 |
| C13A G40U | 0.0326 |
| C13A G40C | 0 |
| C13A C86A | 0.492 |
| C13A C86G | 0.178 |
| C13U C48G | 0.499 |
| C13U C48A | 0.415 |
| C14A A56G | 0.57 |
| C14A A56C | 0.539 |
| C13U C58G | 0.554 |
| C13U C58A | 0.665 |
| C13U U69A | 0.8 |
| C13U U69G | 0.7 |
| C14A A43C | 0.0396 |

| Variant | self-cleavage |
| --- | --- |
| C14A A43G | 0 |
| C14A A43U | 0.145 |
| C13G A16U | 0.19 |
| C13G A16C | 0.0554 |
| C13G A16G | 0.0831 |
| C14A C21A | 0.0652 |
| C13U G25U | 0 |
| C13U G25C | 0.0723 |
| C13U G82C | 0.277 |
| C13U G82U | 0.359 |
| C13G G25C | 0.0875 |
| C13U U47G | 0.95 |
| C13U U47C | 0.489 |
| C13G C85G | 0.0692 |
| C13U C41A | 0.522 |
| C13U C41G | 0.739 |
| C13U C41U | 0.323 |
| C14A A42G | 0.277 |
| C14A A42C | 0.0369 |
| C13U C84A | 0.911 |
| C13U C84G | 0.969 |
| C14A C19U | 0.182 |
| C14A C19G | 0 |
| C13U A78C | 0.119 |

| Variant | self-cleavage |
| --- | --- |
| C13U G53U | 0.671 |
| C13G C14A | 0 |
| C13G C14U | 0.208 |
| C13G C44A | 0.0449 |
| C13G C44U | 0 |
| C13A U37G | 0.147 |
| C13A U37A | 0 |
| C13G A87G | 0.0903 |
| C13G A87C | 0 |
| C13A C57G | 0.19 |
| C13A C62A | 0.158 |
| C13A C62U | 0.214 |
| C13A G76U | 0.317 |
| C13G U27A | 0.391 |
| C13G U27G | 0.396 |
| C14A A78C | 0.158 |
| C13G C41G | 0 |
| C13G C41A | 0.0489 |
| C13G A71C | 0 |
| C13U A43G | 0.525 |
| C13G C32A | 0.0875 |
| C13G C32U | 0.0437 |
| C13G A43G | 0.133 |
| C13G G76U | 0.104 |

| Variant | self-cleavage |
| --- | --- |
| C13U C22U | 0.193 |
| C13U C57G | 0.587 |
| C13G G67C | 0.0665 |
| C13U G28A | 0.128 |
| C13G A56U | 0 |
| C13A G81A | 0.16 |
| C14A C15G | 0.138 |
| C14A C15A | 0.582 |
| C13U C44U | 0.185 |
| C13U C44G | 0.332 |
| C13U C44A | 0.18 |
| C13A G39A | 0.121 |
| C13U G50A | 0.439 |
| C13G C75G | 0.128 |
| C13G C75U | 0.0594 |
| C13G C75A | 0 |
| C13U G81U | 0.163 |
| C13G U60C | 0 |
| C13G U60A | 0.237 |
| C13G A51U | 0 |
| C13G A51G | 0.123 |
| C13G C26U | 0.208 |
| C13U C18A | 0.0652 |
